# From the RNAGym collection of RNA variant scans (doi:10.1021/acssynbio.7b00057)
# B1: Pistol ribozyme (parent)
# chain: GGGUCGUUGUUCCAUAAUCGCGUGGAUAUGGCACGCAAGUUUCUACCGGGCACCGUAAAUGUCCGACUGGAGCCGUUCGGGCGGCUAUAAACAGACCUCAGGCCCGAAGCGUGGCGGCACCUGCCGCCGGUGGUAAAAAAGAUCGGAAGAGCACACGUCU
# Variants of: B1
# Assay: aptazyme ON/OFF ratio, guanine; higher = stronger switching; co-transcriptional cleavage with and without guanine
row,Variant,aptazyme ON/OFF ratio
1,U8A G9C U10C C12A C13G,1.08
2,U8A G9C U10C C12A C13U,0.995
3,U8A G9C U10C C12A C13A,1.03
4,U8A G9A U11A C12A C13U,1.35
5,U8A G9A U11A C12A C13A,1.3
6,U8A G9A U11A C12A C13G,1.25
7,U8A G9C C13A,1.11
8,U8A G9C C13G,1.04
9,U8A G9C C13U,1.17
10,U8A G9C U10A U11G C13A,1.11
11,U8A G9C U10A U11G C13G,1.04
12,U8A G9C U10A U11G C13U,1.18
13,U8A G9A U11G C12G C13U,1.27
14,U8A G9A U11G C12G C13G,1.26
15,U8A G9A U11G C12G C13A,1.23
16,U8A G9C U10C C12U,1.06
17,U8A G9C U10C C12A,1.04
18,U8A G9C U10C C12G,1.05
19,U8A G9C U10G C12G C13U,1.2
20,U8A G9C U10G C12G C13G,1.15
21,U8A G9C U10G C12G C13A,1.23

row,Variant,aptazyme ON/OFF ratio
1,U8A G9A U10G U11G C12U C13U,1.2
2,U8A G9A U10G U11G C12U C13G,1.26
3,U8A G9A U10G U11G C12U C13A,1.36
4,U8A G9C U10A U11C C12A C13A,1.22
5,U8A G9C U10A U11C C12A C13U,1.24
6,U8A G9C U10A U11C C12A C13G,1.12
7,U8A G9A U10G U11A C12G C13A,1.24
8,U8A G9A U10G U11A C12G C13G,1.19
9,U8A G9A U10G U11A C12G C13U,1.12
10,U8A G9C U10G C12U,1.28
11,U8A G9C U10G C12A,1.18
12,U8A G9C U10G C12G,1.17
13,U8A G9C U10A C13A,1.15
14,U8A G9C U10A C13U,1.13
15,U8A G9C U10A C13G,1.06
16,U8A G9A U10G C12A C13U,1.36
17,U8A G9A U10G C12A C13G,1.15
18,U8A G9A U10G C12A C13A,1.42
19,U8A G9A U10C U11G C13A,1.16
20,U8A G9A U10C U11G C13G,1.18
21,U8A G9A U10C U11G C13U,1.17

row,Variant,aptazyme ON/OFF ratio
1,U8A G9A U11C C12A C13A,1.07
2,U8A G9A U11C C12A C13U,1.2
3,U8A G9A U11C C12A C13G,1.23
4,U8A G9A U11G C12U C13A,1.23
5,U8A G9A U11G C12U C13U,1.51
6,U8A G9A U11G C12U C13G,1.18
7,U8A G9C U10G U11C C12G C13A,1.27
8,U8A G9C U10G U11C C12G C13G,1.17
9,U8A G9C U10G U11C C12G C13U,1.19
10,U8A G9C U10A U11C C13A,1.1
11,U8A G9C U10A U11C C13G,1.03
12,U8A G9C U10A U11C C13U,1
13,U8A G9C U10C U11G C12A C13U,1.02
14,U8A G9C U10C U11G C12A C13G,1.08
15,U8A G9C U10C U11G C12A C13A,1.06
16,U8A G9C U10C U11C C12A C13A,1.04
17,U8A G9C U10C U11C C12A C13U,1.03
18,U8A G9C U10C U11C C12A C13G,1.01
19,U8A G9C U10C U11G C12A,1.07
20,U8A G9C U10C U11G C12G,1.12
21,U8A G9C U10C U11G C12U,1.08

row,Variant,aptazyme ON/OFF ratio
1,U8A G9A U11C C13U,1.04
2,U8A G9A U11C C13G,1.08
3,U8A G9A U11C C13A,1.04
4,U8A G9A U10G C12G C13U,1.26
5,U8A G9A U10G C12G C13A,1.14
6,U8A G9A U10G C12G C13G,1.1
7,U8A G9A U10G C12U C13G,1.17
8,U8A G9A U10G C12U C13U,1.41
9,U8A G9A U10G C12U C13A,1.34
10,U8A G9C U10C U11G C12U C13A,1.07
11,U8A G9C U10C U11G C12U C13U,1.07
12,U8A G9C U10C U11G C12U C13G,1.08
13,U8A G9C U10C U11A C12U,1.13
14,U8A G9C U10C U11A C12A,1.06
15,U8A G9C U10C U11A C12G,1.03
16,U8A G9A U10G U11C C12U,1.07
17,U8A G9A U10G U11C C12G,1.2
18,U8A G9A U10G U11C C12A,1.15
19,U8A G9A U11G C13A,1.13
20,U8A G9A U11G C13U,1.17
